The target in the test is MP81, in vitro-synthesized, [35S]-labeled (T. brucei). In words: co-IP.

Here are results for one substance from PMC2885523.

“TbTUT4-MD (TbTUT4 TUTase with grafted RET2 middle domain), in vitro-synthesized, [35S]-labeled (from UniProt Q381M1;Q86MV5)” came in with a fold increase of immunoprecipitation on addition of MP81 of 2 fold.
